US20190276561A1 (FUJIFILM WAKO PURE CHEMICAL, published 2019)
Values belong to the binder of their own block, whether it stands above or below them.

How the values were obtained:
[1] = target: T1, hepatocyte growth factor (HGF) (Homo sapiens (Human), UniProt P14210 388-728); assay: peak shift in gel filtration chromatography
T1 construct: Antigen of the t8E4 and t1E4 antibodies

[2] = target: T2, Integrin α6β1 (Homo sapiens (Human), UniProt P23229 24-680; P05556 21-465); assay: peak shift in gel filtration chromatography
T2 construct: Antigen of the TS2/16 and SG/19 antibodies

[3] = target: T1, hepatocyte growth factor (HGF); assay: X-ray crystal structure of the complex
[4] = target: T3, SORLA (neuroral sorting receptor) Vps10p domain (Homo sapiens (Human), UniProt Q92673 86-753); assay: peak shift in gel filtration chromatography
T3 construct: also called SORLA Vps10p domain
T3 sequence: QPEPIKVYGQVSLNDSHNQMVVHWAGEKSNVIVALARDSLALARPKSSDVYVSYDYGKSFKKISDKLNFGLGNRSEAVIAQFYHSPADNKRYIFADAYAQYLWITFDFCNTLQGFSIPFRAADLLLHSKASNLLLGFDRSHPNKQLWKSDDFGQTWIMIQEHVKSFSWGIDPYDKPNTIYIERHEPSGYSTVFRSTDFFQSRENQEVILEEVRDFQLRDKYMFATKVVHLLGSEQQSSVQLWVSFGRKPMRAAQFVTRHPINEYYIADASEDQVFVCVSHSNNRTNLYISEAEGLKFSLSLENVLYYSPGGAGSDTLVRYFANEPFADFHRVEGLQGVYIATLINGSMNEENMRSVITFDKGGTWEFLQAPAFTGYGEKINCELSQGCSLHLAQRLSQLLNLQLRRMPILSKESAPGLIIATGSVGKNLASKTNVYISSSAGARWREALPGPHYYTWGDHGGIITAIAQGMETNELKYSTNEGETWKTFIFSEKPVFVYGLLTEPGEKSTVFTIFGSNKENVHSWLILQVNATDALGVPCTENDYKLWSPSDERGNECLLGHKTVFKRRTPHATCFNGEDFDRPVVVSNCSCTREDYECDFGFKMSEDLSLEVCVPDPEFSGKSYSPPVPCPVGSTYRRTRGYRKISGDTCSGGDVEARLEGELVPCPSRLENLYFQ

[5] = target: T4, C8 peptide (PRGYPGQV); assay: affinity chromatography on immobilised C8 peptide, eluted with free C8
T4 construct: Antigen molecule of the P20.1 antibody
T4 peptide: PRGYPGQV

T1 sequence (P14210 other isoform, or with tags, fused parts or gaps limits assumed): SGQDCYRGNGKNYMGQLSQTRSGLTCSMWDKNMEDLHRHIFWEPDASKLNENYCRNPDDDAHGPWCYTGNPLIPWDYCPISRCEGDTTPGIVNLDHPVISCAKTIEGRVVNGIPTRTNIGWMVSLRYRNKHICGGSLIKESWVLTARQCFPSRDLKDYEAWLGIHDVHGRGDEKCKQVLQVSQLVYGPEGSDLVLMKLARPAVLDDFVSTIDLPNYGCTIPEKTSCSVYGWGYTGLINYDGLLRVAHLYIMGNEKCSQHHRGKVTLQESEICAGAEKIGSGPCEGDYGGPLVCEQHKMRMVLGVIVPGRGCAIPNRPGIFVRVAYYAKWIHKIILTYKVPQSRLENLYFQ
T2 sequence (P23229 other isoform, or with tags, fused parts or gaps limits assumed, chain 1 of 2): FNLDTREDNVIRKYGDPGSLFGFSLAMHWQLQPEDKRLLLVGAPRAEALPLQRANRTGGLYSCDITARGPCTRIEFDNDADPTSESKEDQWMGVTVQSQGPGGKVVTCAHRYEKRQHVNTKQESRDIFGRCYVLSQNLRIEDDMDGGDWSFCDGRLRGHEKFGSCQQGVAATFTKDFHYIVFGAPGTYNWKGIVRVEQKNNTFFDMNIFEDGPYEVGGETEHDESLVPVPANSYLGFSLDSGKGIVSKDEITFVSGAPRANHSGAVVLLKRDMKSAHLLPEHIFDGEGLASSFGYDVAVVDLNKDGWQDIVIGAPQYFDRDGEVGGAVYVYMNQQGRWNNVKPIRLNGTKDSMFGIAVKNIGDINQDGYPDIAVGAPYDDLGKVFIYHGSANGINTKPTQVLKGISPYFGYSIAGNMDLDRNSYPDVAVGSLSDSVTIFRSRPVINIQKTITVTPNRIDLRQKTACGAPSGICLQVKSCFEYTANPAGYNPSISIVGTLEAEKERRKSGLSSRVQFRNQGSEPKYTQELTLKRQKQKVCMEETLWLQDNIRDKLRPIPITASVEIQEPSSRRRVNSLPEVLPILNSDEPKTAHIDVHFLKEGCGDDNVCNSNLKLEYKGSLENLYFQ
T2 sequence (P05556 other isoform, or with tags, fused parts or gaps limits assumed, chain 2 of 2): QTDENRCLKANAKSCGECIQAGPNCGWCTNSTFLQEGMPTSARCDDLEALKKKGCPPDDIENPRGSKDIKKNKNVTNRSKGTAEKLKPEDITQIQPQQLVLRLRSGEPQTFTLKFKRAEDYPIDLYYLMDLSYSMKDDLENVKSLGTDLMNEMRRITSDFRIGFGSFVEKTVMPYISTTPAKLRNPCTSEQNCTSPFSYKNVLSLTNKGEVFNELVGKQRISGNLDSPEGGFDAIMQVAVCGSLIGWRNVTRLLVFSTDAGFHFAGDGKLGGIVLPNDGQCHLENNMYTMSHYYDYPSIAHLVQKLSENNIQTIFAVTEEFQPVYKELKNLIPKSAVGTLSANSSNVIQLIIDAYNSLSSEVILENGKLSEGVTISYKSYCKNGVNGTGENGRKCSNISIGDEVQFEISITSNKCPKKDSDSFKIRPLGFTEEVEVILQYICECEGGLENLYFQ

B1: t8E4 antibody-Fv-clasp (v2) (other)
VH: MKQVQLKESGPDLVQPSQTLSLTCTVSGFSLTGYGVHWVRQPPGKGLEWVGTLGWNDKKYYNSALKSRLSISRDTSKNQVFLKLSSLETEDTAMYYCTRDGGLLFAYYAMDYWGQGTSVTVCSGSDYEFLKSWTVEDLQKRLLALDPMMEQEIEEIRQKYQSKRQPILDAIEAK
VL: MDIQMTQTTSSLSASLGDRVTFSCRASQDISNYLNWYQQKPDGTVKLLIFYTSRLHSGVPSRFSGSGSGTDYSLTIANLEQEDFATYFCQQDSKHPFTFGSGTKLEIKRGSDYEFLKSWTVEDLQKRLLALDPMMEQEIEEIRQKYQCKRQPILDAIEAK
notes: also called Fv-clasp (v2) against t8E4 antibody
binding result [1]: binds

B2: SG/19 antibody-Fv-clasp (v2) (other)
VH: MQVHLQQSGAELMKPGASVKISCKATGYTFTSYWIEWVKQRPGHGLEWLGEILPGSGYIHYNEKFKGKATFTTDTSSNTAYMQLSSLTSEDSAVYYCSRALALYAMDYWGQGTSVTVCSGSDYEFLKSWTVEDLQKRLLALDPMMEQEIEEIRQKYQSKRQPILDAIEAK
VL: MDIVMTQATPSIPVTPGESVSISCRSNKSLLHSNGNTYLYWFLQRPGQSPRLLIFRMSNLASGVPDRFSGSGSGTAFTLRISRVEAADVGIYFCLQHLEYPFTFGAGTKLELKRGSDYEFLKSWTVEDLQKRLLALDPMMEQEIEEIRQKYQCKRQPILDAIEAK
notes: also called Fv-clasp (v2) against SG/19 antibody
binding result [2]: binds

B3: t1E4 antibody-Fv-clasp (v2) (other)
VH: MKQGQLQQSGPELVKPGASVKISCKASGYVFSSSWMNWVKQRPGKGLEWIGRIYPGYGDTNYNGKFKGKATLTADKSSSTAYMQLSSLTSEDSAVYFCVREELGPYWYFDVWGAGTTVTVCSGSDYEFLKSWTVEDLQKRLLALDPMMEQEIEEIRQKYQSKRQPILDAIEAK
VL: MDVVMTQTPLSLPVSLGDQASISCRSSQSLVHSNGNTYLHWYLQKPGQSPKLLIYKVSNRFSGVPDRFSGSGSGTDFTLKISRVEAEDLGVYFCSQSTHVPYTFGSGTKLEIKRGSDYEFLKSWTVEDLQKRLLALDPMMEQEIEEIRQKYQCKRQPILDAIEAK
notes: also called Fv-clasp (v2) against t1E4 antibody
binding result [3]: binds

B4: 93201 antibody-Fv-clasp (v2) (other)
VH: MEVQLQQSGAELVKPGASVKLSCTASGFNIQDTYIHWVKQRPEQGLDWIGRIDPANGNTKYDPNFQGKATITADTSSNTAYLQLSSLASEDTAVYYCATSNYYSRGAMDYWGQGTSVTVCSGSDYEFLKSWTVEDLQKRLLALDPMMEQEIEEIRQKYQSKRQPILDAIEAK
VL: MDIVLTQSPASLAVSLGQRATISCRASESVEYYGTNLMHWYQQKPGQPPKLLIYVASTVKSGVPARFSGSGSGTDFSLNIHPVEEDDIAMYFCQQSRKVPWTFGGGTRLEIKRGSDYEFLKSWTVEDLQKRLLALDPMMEQEIEEIRQKYQCKRQPILDAIEAK
binding result [4]: binds

The next lines start with the values.

binding result [5]: binds
B5: P20.1 antibody-Fv-clasp (v1) obtained in the E. coli expression system (Comparative Example 1) (other)
VH: MQIQLVQSGPEVQKPGETVRISCKASGYTFTTAGMQWVQKMPGKSLKWIGWINTRSGVPKYAEDFKGRFAFSLETSASIAYLHINNLKNEDTATYFCAREGPGFVYWGQGTLVTVSSGSDYEFLKSWTVEDLQKRLLALDPMMEQEIEEIRQKCQSKRQPILDAIEAK
VL: MGQTVVTQESALTTSPGETVTLTCRSSTGAVTTSNYANWVQEKPDHLFTGLIVGTNNRVPGVPPRFSGSLIEDKAALTITGAQTEDEAIYFCALWYSNHWVFGGGTKLTVLGGSDYEFLKSWTVEDLQKRLLALDPMCEQEIEEIRQKYQSKRQPILDAIEAK
notes: Fv-clasp fragment antibody: heterodimer of VH-SARAH and VL-SARAH linked by a disulfide between Cys35 and Cys24 of the two SARAH domains; also called Fv-clasp (v1) against P20.1 antibody; Fv-clasp (v1) of P20.1 antibody

binding result [2]: binds
B6: TS2/16 antibody-Fv-clasp (v2) (other)
VH: MDVKLVESGGGLVKPGGSLKLSCAASGFTFSSYTMSWVRQTPEKRLEWVATISSGGSYTYYPDSVKGRFTISRDKAKNTLYLQMGSLKSEDTAMYYCTRIGYDEDYAMDHWGQGTSVTVCSGSDYEFLKSWTVEDLQKRLLALDPMMEQEIEEIRQKYQSKRQPILDAIEAK
VL: MQIVVTQRPTTMAASPGDKIIITCSVSSIISSNYLHWYSQKPGFSPKLLIYRTSNLASGVPPRFSGSGSGTSYSLTIGTMEAEDVATYYCQQGSDIPLTFGDGTKLDLKRGSDYEFLKSWTVEDLQKRLLALDPMMEQEIEEIRQKYQCKRQPILDAIEAK
notes: also called Fv-clasp (v2) against TS2/16 antibody
